Article PMC11162469, “Discovery of RXFP2 genetic association in resistant hypertensive men and RXFP2 antagonists for the treatment of resistant hypertension” (Scientific Reports, 2024)

Tests used:
[1] = molecular target: T1, rat RXFP2 (Rattus norvegicus, UniProt F7EMH8); assay: INSL3-stimulated cAMP assay in HEK293 stably expressing rat RXFP2; conditions: INSL3 EC80-stimulated cAMP, stable expression, N = 2; for IC50: read-out: HEK293-rat RXFP2 cAMP IC50;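 as to all read-outs here: cAMP measured with an HitHunter kit in 384-well plates, 11-point dose–response curves up to 1 µM antibody, four-parameter variable-slope fit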
T1 sequence (F7EMH8 20-737): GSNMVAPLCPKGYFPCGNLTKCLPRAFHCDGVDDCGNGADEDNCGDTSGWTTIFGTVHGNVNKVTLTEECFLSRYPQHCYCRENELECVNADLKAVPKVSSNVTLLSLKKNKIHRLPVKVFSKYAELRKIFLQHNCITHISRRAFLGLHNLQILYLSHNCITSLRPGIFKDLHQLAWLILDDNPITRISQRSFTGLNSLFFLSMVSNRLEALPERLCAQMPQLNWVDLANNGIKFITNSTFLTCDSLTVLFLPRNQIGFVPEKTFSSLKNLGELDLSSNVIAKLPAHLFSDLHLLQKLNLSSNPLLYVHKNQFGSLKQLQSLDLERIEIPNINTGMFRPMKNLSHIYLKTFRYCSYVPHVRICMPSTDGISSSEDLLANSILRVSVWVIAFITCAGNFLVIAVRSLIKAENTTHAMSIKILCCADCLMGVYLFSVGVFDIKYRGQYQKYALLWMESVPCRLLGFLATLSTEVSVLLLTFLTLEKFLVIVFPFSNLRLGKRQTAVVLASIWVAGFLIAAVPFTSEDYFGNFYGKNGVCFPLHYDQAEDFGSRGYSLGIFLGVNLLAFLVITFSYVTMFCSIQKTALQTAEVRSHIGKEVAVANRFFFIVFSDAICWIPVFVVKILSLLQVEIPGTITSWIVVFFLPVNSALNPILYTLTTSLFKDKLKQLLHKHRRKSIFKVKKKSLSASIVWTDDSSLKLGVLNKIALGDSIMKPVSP

[2] = molecular target: T2, human LDLa-linker (Homo sapiens, UniProt Q8WXD0); assay: Biacore S200 binding to human LDLa-linker protein
T2 construct: human LDLa linker [huRXFP2-LDLa-linker(38-105)-ratFc-8XHIS]; enterokinase cleavage site (C); rat Fc (C, cleaved yes); 8xHis (C, cleaved yes); made in house; host or cells: Expi293
T2 sequence (Q8WXD0 38-105): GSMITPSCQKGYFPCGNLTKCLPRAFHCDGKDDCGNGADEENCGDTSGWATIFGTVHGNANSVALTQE
Experimental: Goat anti Rat Fc gamma fragment specific (Jackson Immunoresearch, 112-005-071) was immobilized at 30 µg/mL to a Series S CM5 chip (Cytiva Life Sciences). In three separate runs, twenty different purified recombinant rat anti RXFP2 antibodies were then captured to the CM5 chip at a concentration of 5 µg/mL. The antibody panel was captured; rat LDLa-linker or human LDLa-linker protein was flowed as analyte at the following concentrations: 20 nM, 10 nM, 5 nM, 2.5 nM, […], and 0 nM. Antibody kinetics were evaluated using a 1:1 fit model (Biacore S200).

[3] = molecular target: T3, human LDLa peptide (UnitProt Q8WXD0 43-80) (Homo sapiens, UniProt Q8WXD0); assay: ELISA binding to linker-less human LDLa peptide
T3 construct: human LDLa peptide (Q8WXD0 43-80)
T3 sequence (Q8WXD0 43-80 limits assumed): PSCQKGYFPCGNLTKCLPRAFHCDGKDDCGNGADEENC
Experimental: The human/rat RXFP2 cross reactive antibodies belong to two epitope bins and were further evaluated for binding to the linker-less human LDLa peptide (UnitProt Q8WXD0 43-80) by ELISA. […] The different domain requirements for binding are consistent with results from the binning experiment showing 4F6 and 4G6 are in a separate bin from 4B1.
Rat LDLa-linker_ratFc, human LDLa-linker_ratFc, or ratFc, or human LDLa peptide (Q8WXD0 43-80) was diluted to 1 µg/mL in 1X PBS and immobilized in separate 96-well ELISA plates (Nunc Maxisorp), 50 µL/well. The plates were then incubated overnight at 4 °C. The following day the plates were washed three times with ELISA wash buffer (PBS + 0.05% Tween-20) and then blocked with ELISA blocking buffer (PBS + 0.05% Tween-20 + 1% BSA), 200 µL/well, and incubated 1 h at room temperature on a shaker. Plates were again washed three times followed by the addition of the primary antibodies. Hybridoma supernatant was added neat, 50 µL/well; mouse serum was added 1:100 and then serially diluted 1:2 for 8 points, 50 µL/well. Purified antibodies were added 5 µg/mL in the first well and serially diluted down the plate 1:2 for 8 points, 50 µL/well. Primary antibody was incubated for 1 h at room temperature on a shaker. […] Stopping solution (2N Sulfuric acid) was added to the plates 50 µL/well, and then read on a plate reader (SpectraMax Molecular Devices) at 450 nm.

[4] = molecular target: human RXFP2 (Homo sapiens, UniProt Q8WXD0); assay: INSL3-stimulated cAMP assay in HEK293 stably expressing human RXFP2; conditions: INSL3 EC80-stimulated cAMP, stable expression, N = 2; for IC50: read-out: HEK293-human RXFP2 cAMP IC50
Sequence of human RXFP2 (Q8WXD0 whole entry): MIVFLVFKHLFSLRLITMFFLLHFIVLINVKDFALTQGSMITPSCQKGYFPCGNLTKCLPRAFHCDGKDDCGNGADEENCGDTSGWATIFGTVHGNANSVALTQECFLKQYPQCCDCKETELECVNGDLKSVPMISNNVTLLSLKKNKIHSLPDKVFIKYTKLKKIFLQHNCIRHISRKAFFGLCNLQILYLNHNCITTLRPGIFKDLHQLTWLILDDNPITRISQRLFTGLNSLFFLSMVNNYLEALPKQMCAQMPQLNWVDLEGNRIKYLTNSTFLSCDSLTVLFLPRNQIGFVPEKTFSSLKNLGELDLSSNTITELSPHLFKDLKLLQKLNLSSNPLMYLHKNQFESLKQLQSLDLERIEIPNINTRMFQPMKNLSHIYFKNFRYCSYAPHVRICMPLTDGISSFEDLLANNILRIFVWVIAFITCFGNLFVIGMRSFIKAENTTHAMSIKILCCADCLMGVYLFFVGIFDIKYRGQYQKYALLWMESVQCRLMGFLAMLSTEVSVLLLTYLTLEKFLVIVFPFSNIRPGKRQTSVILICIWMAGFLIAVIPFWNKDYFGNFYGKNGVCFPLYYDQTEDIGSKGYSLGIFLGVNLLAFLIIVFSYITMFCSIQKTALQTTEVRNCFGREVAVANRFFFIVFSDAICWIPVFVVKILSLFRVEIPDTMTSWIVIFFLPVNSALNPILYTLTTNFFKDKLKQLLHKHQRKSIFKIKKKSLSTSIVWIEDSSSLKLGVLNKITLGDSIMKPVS

[5] = Pharmacokinetic study of RXFP2 mAbs in rat; type: in vivo, Wistar Han rats; conditions: for half-life, extrapolated values: Wistar Han rats, 1 mg/kg sc., over 28 days; for estimated dose to achieve tenfold higher IC50 HEK-rRXFP2 cAMP activity for approximately 28 days in rat: from trough concentration, dose-linearity assumed; for AUClast / Cmax / Tmax: male Wistar Han rats, 1 mg/kg s.c., n = 3, mean ± SD
Experimental: For the pharmacokinetic study of RXFP2 mAbs in rat, 1G1, 2D4, 4B1, 4G6, 1F2, and 3F3 were prepared in phosphate buffered saline (0.100 mg/mL) with low endotoxin (≤ 0.76 EU/mL). Adult male Wistar Han rats (n = 3/mAb) were administered 1 mg/kg subcutaneously (10 mL/kg). Blood samples (100 µL) were collected in EDTA containing tubes at 0.25, 3, 6 24, 48, 96, 168 (day 7), 336 (day 14), 504 (day 21), and 672 (day 28) hours post dose, immediately centrifuged (6100 rpm), and 50 µL plasma stored at − 80 °C until assay. Rats maintained health throughout the study and were anesthetized (isoflurane to effect) and euthanized on day 28.
Frozen rat plasma samples were thawed and analyzed using a qualified analytical method based on sample dilution, followed by Electrochemiluminescence immunoassay analysis. The lower limit of quantification (LLQ) was 0.1 µg/mL using a 10 µL aliquot of 51-fold diluted rat plasma with a higher limit of quantification (HLQ) of 10 µg/mL. RXFP2 mAbs were captured with LDLa protein and detected with sulfo-tag labeled mouse anti-rat IgG2b. The computer systems that were used to acquire and quantify data included Gyrolab Workstation Version 8.1.5 and Watson LIMS version 7.6.1. Rat pharmacokinetic parameters were calculated by non-compartmental analysis (NCA) analysis using WinNonlin Phoenix 64 (version 8.3). Values are reported in mean ± standard deviation.

[6] = molecular target: T1, rat RXFP2; assay: Cortisol secretion (ELISA) in H295R stably expressing rat RXFP2; type: cell-based; parameters: expressed in transfected cells; conditions: H295R-rRXFP2, 3.5 nM INSL3, 48 h, read-out: IC50 on INSL3-induced cortisol release
Experimental: (§1) RXFP2 antagonists were added to H295R-rRXFP2 before addition of INSL3 EC80 (3.5 nM) for 48 h, whereupon the cells and supernatants were collected. CYP11B1 and CYP11B2 mRNA were determined by qPCR and the RXFP2 blocker potencies were calculated (Fig. 5a). Fifteen antibodies have IC50s < 50 nM, and three of the top antibodies (1F2, 4G6, and 2D4) were selected for evaluation in steroid hormone secretion assays by ELISA.
(§2) The day after seeding, H295R cells were treated and incubated for 48 h before supernatants and cell lysates were collected. Treatments included INSL3, IgG, 1F2, and 4G6 at 0.035 pM–3.5 µM, 2D4 at 0.01 nM–1 uM, or phosphate buffered saline control. In RXFP2 antagonist assays, 3.5 nM INSL3 was used as the stimulus. Cortisol present in the adrenal cell supernatant at 48 h post treatment was detected by ELISA (R&D KGE008B). Sample dilution was optimized at 1/90 using a standard curve. Aldosterone was below the limit of detection by ELISA (R&D KGE016) and required liquid–liquid extraction (LLE) twice using methyl tetra butyl ether. Post extraction samples were dried (SPE Nitrogen dryer) and reconstituted for ELISA analysis. All samples were run in duplicates.

[7] = molecular target: T1, rat RXFP2; assay: INSL3-stimulated CYP11B2 mRNA expression in H295R stably expressing rat RXFP2; type: cell-based; parameters: expressed in transfected cells; conditions: INSL3 EC80 (3.5 nM), 48 h, qPCR; N = 2
Experimental: as §1
(§3) Data entered as XY table, with x = [Inhibitor] (nM) and y = CYP11B2 or CYP11B1 fold change.

[8] = molecular target: T1, rat RXFP2; assay: INSL3-stimulated CYP11B1 mRNA expression in H295R stably expressing rat RXFP2; type: cell-based; parameters: expressed in transfected cells; conditions: INSL3 EC80 (3.5 nM), 48 h, qPCR; N = 2
Experimental: as §1, §3

[9] = molecular target: T1, rat RXFP2; assay: Aldosterone secretion (ELISA) in H295R stably expressing rat RXFP2; type: cell-based; parameters: expressed in transfected cells; conditions: H295R-rRXFP2, 3.5 nM INSL3, 48 h, read-out: IC50 on INSL3-induced aldosterone release
Experimental: as §1, §2

Molecule	HEK293-rat RXFP2 cAMP % Max Response [1] [%]	IC50 [1] [nM]	cross reactivity to the human LDLa-linker [2]	binding to linker-less human LDLa peptide [3]	HEK293-human RXFP2 cAMP % Max Response [4]	IC50 [4] [nM]	half-life, extrapolated values [5] [h]	estimated dose to achieve tenfold higher IC50 HEK-rRXFP2 cAMP activity for approximately 28 days in rat [5]	AUClast [5] [µg·h/mL]	Cmax [5] [ng/mL]	Tmax [5] [h]	IC50 [6] [nM]	IC50 [7] [nM]	IC50 [8] [nM]	IC50 [9] [nM]
4F6: Human/rat cross-reactive RXFP2 monoclonal antibody, rat IgG2b backbone; binds the LDLa domain (antibody, V domains shown) VH: EVQLQQSGPELVKPGASVKMSCKASGYTFTNYVLHWVKQKPGQGLEWIGYINPYNDGSKYNEKFKGRATLTSDKSSSTAYMELSSLTSEDSAVYYCARGGWLLDYFDYWGQGTTLTVSS VL: DVLMTQSPLSLPVSLGEQASISCRSSQSIVHSDGDTYLEWYLQKPGQSPNLLIYKVSNRFSGVPDRFSGSGSGTDFTLKISRVEAEDLGVYYCFQGSHVPPTFGGGTKLEIK	80.4	48.5	cross reactivity	bind	~ 82.7%	~354	–	–	–	–	–	–	–	–	–
1F2: RXFP2 monoclonal antibody from hybridoma, recombinantly expressed in a rat IgG2b backbone (antibody, V domains shown) VH: QVQLKQSGPGLVQPSQSLSITCTVSGFSLTAYGVNWVRQSPGKGLEWLGVIWSGGNTDYNAPFISRLSITKDNSKSQVFFKMNSLEADDTAIYYCARAKGYYAMDYWGQGTSVTVSS VL: DIQMTQSPASLSVSVGESVTITCRATENIYSNLVWYQQKQGQSPQLLVYAVTSLADGVPSRFSGSGSGTQYSLKINSLQSEDFGTYYCQHFWGTPYTFGGGTKLEIK	76.1	19.1	–	–	–	~405	≥ 264	approximately 10 mg/kg	3530 ± 746	7860 ± 1750	120 ± 42	0.21	0.1	0.32	–
2D4: RXFP2 monoclonal antibody from hybridoma, recombinantly expressed in a rat IgG2b backbone (antibody, V domains shown) VH: QVQLKESGPGLVAPSQSLSITCTVSGFSLTTYGISWVRQPPGKGLEWLGVIWTGGGTNYNSALKSRLSISKDNSKSQVFLKMNSLQTDDTARYYCARTEGYYVMDYWGQGTSVTVSS VL: DIQMTQSPASLSVSVGETVTITCRASENIYSNLVWYQQKQGKSPQLLVYAATNLADGVPSRFSGSGSGTQYSLKINNLQSEDFGTYYCQHFWGPPWTFGGGTKLEIK	86.8	21	–	–	–	> 1000	≥ 264	approximately 9 mg/kg	3210 ± 463	7360 ± 1540	168 ± 0	0.17	0.11	0.14	0.05
